According to patent US20140018302A1 (SALK INSTITUTE FOR BIOLOGICAL STUDIES INTELLECTUAL PROPERTY …, published 2014):
Positions of bridges follow the written chain, without caps; N, C: chain ends. Non-standard residues stand in square brackets, D forms with d. No end group written: not given here. *: point of attachment. FITC = O=C1OC2(c3ccc(O)cc3Oc3cc(O)ccc32)c2ccc(NC(=S)*)cc21; R8 = C=CCCCCCC[C@@](C)(N)C(=O)O; S5 = C=CCCC[C@](C)(N)C(=O)O

T1: recombinant full-length HDMX (UniProt O15151 1-490)
T1 construct: mature; Full-length protein after TEV cleavage of the tags; also called HDM4
T1 sequence (looked up): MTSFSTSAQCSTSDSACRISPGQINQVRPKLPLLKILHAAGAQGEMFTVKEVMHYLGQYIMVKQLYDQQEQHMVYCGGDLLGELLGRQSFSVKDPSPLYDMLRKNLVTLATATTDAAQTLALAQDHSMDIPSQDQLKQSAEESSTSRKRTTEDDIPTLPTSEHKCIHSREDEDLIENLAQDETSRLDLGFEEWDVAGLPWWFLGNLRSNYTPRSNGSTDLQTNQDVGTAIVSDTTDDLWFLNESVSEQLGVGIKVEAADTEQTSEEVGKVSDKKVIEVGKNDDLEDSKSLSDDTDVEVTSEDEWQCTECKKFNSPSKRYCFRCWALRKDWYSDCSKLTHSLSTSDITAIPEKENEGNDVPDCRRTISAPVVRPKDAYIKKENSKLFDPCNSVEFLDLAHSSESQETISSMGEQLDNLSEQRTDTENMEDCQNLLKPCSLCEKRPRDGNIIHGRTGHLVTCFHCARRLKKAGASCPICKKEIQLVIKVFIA

T2: native HDMX (intracellular, in SJSA-X, JEG-3 and MCF-7 cells) (UniProt O15151 1-490)
T2 construct: mature; Cellular protein in co-immunoprecipitation experiments; In SJSA-X cells it is overexpressed by engineering; also called intracellular HDMX
T2 sequence (looked up): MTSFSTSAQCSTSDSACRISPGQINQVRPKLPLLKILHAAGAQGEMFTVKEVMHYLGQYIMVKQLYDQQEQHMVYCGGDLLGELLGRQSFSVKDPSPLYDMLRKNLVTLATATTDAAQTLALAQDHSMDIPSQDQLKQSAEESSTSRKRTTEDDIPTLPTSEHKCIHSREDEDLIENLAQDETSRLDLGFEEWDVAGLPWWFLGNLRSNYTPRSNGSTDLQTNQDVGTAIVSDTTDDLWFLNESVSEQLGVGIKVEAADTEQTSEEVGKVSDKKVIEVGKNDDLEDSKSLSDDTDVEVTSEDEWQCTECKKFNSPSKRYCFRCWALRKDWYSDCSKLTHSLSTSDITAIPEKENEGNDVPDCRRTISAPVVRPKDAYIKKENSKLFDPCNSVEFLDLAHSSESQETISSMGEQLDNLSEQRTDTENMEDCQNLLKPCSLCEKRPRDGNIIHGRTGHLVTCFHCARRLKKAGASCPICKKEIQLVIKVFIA


Assays:
[1] = target: T1, recombinant full-length HDMX; assay: fluorescence polarization, 25 nM FITC-peptide
Protocol: Fluorescence polarization was then measured at equilibrium on a SpectraMax M5 microplate reader (Molecular Devices).

[2] = target: T3, native HDM2 (intracellular, in SJSA-X cells) (UniProt Q00987 1-491, limits assumed); assay: anti-FITC pull-down from SJSA-X cells, HDM2 western
T3 construct: mature; Cellular protein in the anti-FITC pull-down; also called intracellular HDM2
T3 sequence (Q00987 whole entry): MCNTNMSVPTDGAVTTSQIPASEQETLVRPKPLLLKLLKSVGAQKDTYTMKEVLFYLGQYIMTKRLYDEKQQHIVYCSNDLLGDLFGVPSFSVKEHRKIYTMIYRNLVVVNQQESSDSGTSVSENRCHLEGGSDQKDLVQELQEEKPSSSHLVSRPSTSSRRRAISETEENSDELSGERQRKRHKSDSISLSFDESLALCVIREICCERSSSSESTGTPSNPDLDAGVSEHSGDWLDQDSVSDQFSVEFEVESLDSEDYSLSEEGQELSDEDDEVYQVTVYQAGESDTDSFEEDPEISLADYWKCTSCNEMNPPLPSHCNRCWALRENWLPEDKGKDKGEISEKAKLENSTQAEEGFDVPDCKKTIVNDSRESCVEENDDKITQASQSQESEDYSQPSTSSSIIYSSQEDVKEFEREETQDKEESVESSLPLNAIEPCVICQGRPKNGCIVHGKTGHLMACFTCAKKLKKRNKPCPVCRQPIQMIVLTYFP

[3] = target: T2, native HDMX (intracellular, in SJSA-X, …); assay: anti-FITC pull-down from SJSA-X cells, HDMX western

Row | Binder | binding result [1] | binding result [2] | binding result [3]
1 | QSQQTA[R8]NLWRLL[S5]QN (staple 7-14; not fully specified (N-terminus, C-terminus); also: N-terminal FITC in binding assays, also called FITC-SAH-p53-8F19A) [SAH-p53-8F19A] | no binding (tested: 25 pM-100 nM protein) | no binding (tested: 15 uM peptide on cells) | no binding (tested: 15 uM peptide on cells)
2 | {FITC}-LSQETFSDLWKLLPEN (Unstapled wild-type peptide, FITC-labeled in the FP assay; also called wild type p53 peptide) [FITC-WT-p53 14-29] | no binding (tested: 25 pM-100 nM protein) |  | 
